In IntAct's records for PubMed 31515488:

B1: Cyclin-D1-binding protein 1 (Homo sapiens), O95273 (parent)
chain: MASATAPAAAVPTLASPLEQLRHLAEELRLLLPRVRVGEAQETTEEFNREMFWRRLNEAAVTVSREATTLTIVFSQLPLPSPQETQKFCEQVHAAIKAFIAVYYLLPKDQGITLRKLVRGATLDIVDGMAQLMEVLSVTPTQSPENNDLISYNSVWVACQQMPQIPRDNKAAALLMLTKNVDFVKDAHEEMEQAVEECDPYSGLLNDTEENNSDNHNHEDDVLGFPSNQDLYWSEDDQELIIPCLALVRASKACLKKIRMLVAENGKKDQVAQLDDIVDISDEISPSVDDLALSIYPPMCHLTVRINSAKLVSVLKKALEITKASHVTPQPEDSWIPLLINAIDHCMNRIKELTQSELEL
partner: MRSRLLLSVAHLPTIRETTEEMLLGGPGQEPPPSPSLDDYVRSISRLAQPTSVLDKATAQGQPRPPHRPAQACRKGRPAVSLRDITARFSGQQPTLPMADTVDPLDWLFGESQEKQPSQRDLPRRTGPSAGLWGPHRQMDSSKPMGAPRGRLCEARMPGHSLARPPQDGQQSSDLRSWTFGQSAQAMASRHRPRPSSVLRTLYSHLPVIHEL
B2: Tuftelin-interacting protein 11 (Homo sapiens), Q9UBB9 (parent)
chain: MSLSHLYRDGEGRIDDDDDERENFEITDWDLQNEFNPNRQRHWQTKEEATYGVWAERDSDDERPSFGGKRARDYSAPVNFISAGLKKGAAEEAELEDSDDEEKPVKQDDFPKDFGPRKLKTGGNFKPSQKGFAGGTKSFMDFGSWERHTKGIGQKLLQKMGYVPGRGLGKNAQGIINPIEAKQRKGKGAVGAYGSERTTQSMQDFPVVDSEEEAEEEFQKELSQWRKDPSGSKKKPKYSYKTVEELKAKGRISKKLTAPQKELSQVKVIDMTGREQKVYYSYSQISHKHNVPDDGLPLQSQQLPQSGKEAKAPGFALPELEHNLQLLIDLTEQEIIQNDRQLQYERDMVVNLFHELEKMTEVLDHEERVISNLSKVLEMVEECERRMQPDCSNPLTLDECARIFETLQDKYYEEYRMSDRVDLAVAIVYPLMKEYFKEWDPLKDCTYGTEIISKWKSLLENDQLLSHGGQDLSADAFHRLIWEVWMPFVRNIVTQWQPRNCDPMVDFLDSWVHIIPVWILDNILDQLIFPKLQKEVENWNPLTDTVPIHSWIHPWLPLMQARLEPLYSPIRSKLSSALQKWHPSDSSAKLILQPWKDVFTPGSWEAFMVKNIVPKLGMCLGELVINPHQQHMDAFYWVIDWEGMISVSSLVGLLEKHFFPKWLQVLCSWLSNSPNYEEITKWYLGWKSMFSDQVLAHPSVKDKFNEALDIMNRAVSSNVGAYMQPGARENIAYLTHTERRKDFQYEAMQERREAENMAQRGIGVAASSVPMNFKDLIETKAEEHNIVFMPVIGKRHEGKQLYTFGRIVIYIDRGVVFVQGEKTWVPTSLQSLIDMAK
partner: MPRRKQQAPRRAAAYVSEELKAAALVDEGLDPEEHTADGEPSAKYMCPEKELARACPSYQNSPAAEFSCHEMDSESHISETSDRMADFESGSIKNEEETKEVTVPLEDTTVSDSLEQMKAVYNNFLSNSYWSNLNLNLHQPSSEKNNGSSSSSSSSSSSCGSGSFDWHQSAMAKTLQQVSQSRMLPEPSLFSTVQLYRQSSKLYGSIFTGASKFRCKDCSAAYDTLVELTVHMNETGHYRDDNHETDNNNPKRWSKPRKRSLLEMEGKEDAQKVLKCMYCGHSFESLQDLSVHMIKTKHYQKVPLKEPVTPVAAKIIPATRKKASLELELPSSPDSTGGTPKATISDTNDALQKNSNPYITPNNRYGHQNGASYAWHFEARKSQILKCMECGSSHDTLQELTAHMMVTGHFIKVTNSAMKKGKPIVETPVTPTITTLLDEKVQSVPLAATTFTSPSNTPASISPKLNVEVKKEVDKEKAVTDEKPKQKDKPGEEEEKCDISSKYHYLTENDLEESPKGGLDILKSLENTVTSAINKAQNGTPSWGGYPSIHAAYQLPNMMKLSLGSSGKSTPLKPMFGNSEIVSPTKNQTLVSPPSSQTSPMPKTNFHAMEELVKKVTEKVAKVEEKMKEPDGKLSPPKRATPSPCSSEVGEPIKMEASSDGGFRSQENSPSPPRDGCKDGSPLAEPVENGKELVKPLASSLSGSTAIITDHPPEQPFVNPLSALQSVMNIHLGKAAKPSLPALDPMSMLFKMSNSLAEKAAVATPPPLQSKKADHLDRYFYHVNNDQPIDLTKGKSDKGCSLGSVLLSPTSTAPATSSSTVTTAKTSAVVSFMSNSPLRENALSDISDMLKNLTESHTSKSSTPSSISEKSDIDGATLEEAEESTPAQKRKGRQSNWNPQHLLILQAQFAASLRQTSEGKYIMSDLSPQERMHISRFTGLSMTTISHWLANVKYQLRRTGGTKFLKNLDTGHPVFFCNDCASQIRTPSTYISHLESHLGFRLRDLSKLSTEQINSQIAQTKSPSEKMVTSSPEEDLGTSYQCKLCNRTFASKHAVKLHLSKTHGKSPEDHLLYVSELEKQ
B3: GRIP and coiled-coil domain-containing protein 1 (Homo sapiens), Q96CN9 (parent)
chain: MEKFGMNFGGGPSKKDLLETIETQKKQLLQYQARLKDVVRAYKSLLKEKEALEASIKVLSVSHEADVGLAGVQLPGLTFPDSVDDRCSTHSEDSTGTATSLDTAASLTSTKGEFGVEDDRPARGPPPPKSEEASWSESGVSSSSGDGPFAGGEVDKRLHQLKTQLATLTSSLATVTQEKSRMEASYLADKKKMKQDLEDASNKAEEERARLEGELKGLQEQIAETKARLITQQHDRAQEQSDHALMLRELQKLLQEERTQRQDLELRLEETREALAGRAYAAEQMEGFELQTKQLTREVEELKSELQAIRDEKNQPDPRLQELQEEAARLKSHFQAQLQQEMRKTALAEDQLRQQSQVEEQRVAALENQISEVSELLGTYEKAKQKDQLAIQKLKERILQLDLENKTLALAASSRSPLDSHGEESSLDVNVLKDKMEKLKRLLQVAARKSQVTLDVEKLCDLEIMPSSEAADGEKATALYYQQELKQLKEEFERYKMRAQVVLKSKNTKDGNLGKELEAAQEQLAELKEKYISLRLSCEELEHQHQQEADDWKQELARLQQLHRQELERCQLDFRDRTLKLEEELHKQRDRALAVLTEKDLELEQLRSVALASGLPGRRSPVGGGGPGDPADTSSSDSLTQALQLAAANEPTFFLYAEQLARKEVEITSLRKQKHRLEVEVHQLQDRLLEEGERHREEVAALQSHIEKNIRDQSREGANLEYLKNIIYRFLTLPDSLGRQQTLTAILTILHFSPEEKQVIMRLPTSASWWPSGKR
partner: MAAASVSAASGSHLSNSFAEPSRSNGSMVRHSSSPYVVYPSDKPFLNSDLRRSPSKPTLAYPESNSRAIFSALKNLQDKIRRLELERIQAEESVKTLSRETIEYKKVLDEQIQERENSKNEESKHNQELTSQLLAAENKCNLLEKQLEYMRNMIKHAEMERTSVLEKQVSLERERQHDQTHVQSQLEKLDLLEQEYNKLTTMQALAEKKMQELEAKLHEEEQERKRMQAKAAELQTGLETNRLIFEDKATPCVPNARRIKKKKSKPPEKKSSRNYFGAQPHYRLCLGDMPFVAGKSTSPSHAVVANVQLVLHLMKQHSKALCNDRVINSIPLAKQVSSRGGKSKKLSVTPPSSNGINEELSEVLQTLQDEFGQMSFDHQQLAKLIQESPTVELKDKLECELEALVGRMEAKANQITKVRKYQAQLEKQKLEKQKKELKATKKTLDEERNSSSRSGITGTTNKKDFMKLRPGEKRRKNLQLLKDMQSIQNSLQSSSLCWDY
B4: Transcription factor 12 (Homo sapiens), Q99081 (parent)
chain: MNPQQQRMAAIGTDKELSDLLDFSAMFSPPVNSGKTRPTTLGSSQFSGSGIDERGGTTSWGTSGQPSPSYDSSRGFTDSPHYSDHLNDSRLGAHEGLSPTPFMNSNLMGKTSERGSFSLYSRDTGLPGCQSSLLRQDLGLGSPAQLSSSGKPGTAYYSFSATSSRRRPLHDSAALDPLQAKKVRKVPPGLPSSVYAPSPNSDDFNRESPSYPSPKPPTSMFASTFFMQDGTHNSSDLWSSSNGMSQPGFGGILGTSTSHMSQSSSYGNLHSHDRLSYPPHSVSPTDINTSLPPMSSFHRGSTSSSPYVAASHTPPINGSDSILGTRGNAAGSSQTGDALGKALASIYSPDHTSSSFPSNPSTPVGSPSPLTGTSQWPRPGGQAPSSPSYENSLHSLQSRMEDRLDRLDDAIHVLRNHAVGPSTSLPAGHSDIHSLLGPSHNAPIGSLNSNYGGSSLVASSRSASMVGTHREDSVSLNGNHSVLSSTVTTSSTDLNHKTQENYRGGLQSQSGTVVTTEIKTENKEKDENLHEPPSSDDMKSDDESSQKDIKVSSRGRTSSTNEDEDLNPEQKIEREKERRMANNARERLRVRDINEAFKELGRMCQLHLKSEKPQTKLLILHQAVAVILSLEQQVRERNLNPKAACLKRREEEKVSAVSAEPPTTLPGTHPGLSETTNPMGHM

Variants of: B1
Details: with depp1_human DEPP1, Q9NTK1

Row | effect of a mutation on the interaction | Variant
1 | disrupting interaction strength | I277T

Variants of: B2
Details: with tsh3_human TSHZ3, Q63HK5

Row | effect of a mutation on the interaction | Variant
2 | with no effect | R8Q
3 | with no effect | S688L

Variants of: B3
Details: with cep57_human CEP57, Q86XR8

Row | effect of a mutation on the interaction | Variant
4 | with no effect | A274T

Variants of: B4
Details: with psa1_human PSMA1, P25786
Chain of psa1_human PSMA1, P25786 (P25786 whole entry): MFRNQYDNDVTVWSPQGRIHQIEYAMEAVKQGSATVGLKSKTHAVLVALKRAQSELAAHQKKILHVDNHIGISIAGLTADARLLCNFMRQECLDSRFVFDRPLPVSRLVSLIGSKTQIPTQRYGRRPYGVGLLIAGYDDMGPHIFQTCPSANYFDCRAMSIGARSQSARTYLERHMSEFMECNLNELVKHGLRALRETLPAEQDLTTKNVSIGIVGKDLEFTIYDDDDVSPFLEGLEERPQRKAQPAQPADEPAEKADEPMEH

Row | effect of a mutation on the interaction | Variant
5 | with no effect | A458V
6 | with no effect | D565V
7 | with no effect | G300S
8 | with no effect | I11M

Variants of: B4
Details: with cdn2c_human CDKN2C

Row | effect of a mutation on the interaction | Variant
9 | with no effect | A458V
10 | with no effect | D565V
11 | with no effect | G300S
12 | with no effect | I11M
